In patent publication US12241099B2, “Peptide therapeutics for treating Alzheimer's disease and related conditions” (The Board of Regents of the University of Oklahoma, priority 2018, dated 2025):
Residues, ends and D or L forms follow the SMILES beside them. No end group written: not given here.

Key:
Aβ1-42 [1] = biological target: T1, Aβ1-42 (Homo sapiens, UniProt P05067); test: Amyloid Beta (1-42) Thioflavin T fibrillation (aggregation) assay; type: biochemical; set-up: used to monitor the formation of Aβ1-42 peptide fibrils; purchased Anaspec; conditions: for inhibition of Aβ1-42 fibrillation (in words): increasing concentrations of peptide, Rfu; for molar ratio inhibitor/Aβ1-42 corresponding to IC50 of fibrillation: ratio at IC50
Procedure: The Amyloid Beta (1-42) Thioflavin T Aggregation Kit was purchased from Anaspec and used to monitor the formation of Aβ1-42 peptide fibrils, according to the manufacturer's instructions, with some modifications. Thioflavin T dye was diluted to 250 μM in fibrillation buffer A and kept in the dark until use. […] Neutrophil proteins were tested in the absence and presence of protease inhibitors. […] Chymostatin was dissolved in DMSO and used at 125 μM final concentration in reactions with CG. Reactions were pipetted up and down twice in the wells with a multichannel pipette to ensure mixing, and fluorescence (ΔEX=440 nm, ΔEm=485 nm) was read every 5 minutes for 3 hours on a BioTek Synergy 2 plate reader with Gen 5 software, with a sensitivity set at 65.

Aβ1-42 [2] = biological target: T1, Aβ1-42; test: ELISA binding of Aβ1-42 to plate-coated neutrophil proteins and derived peptides; conditions: for binding of Aβ1-42: 150 nM Aβ1-42, plate coated with protein/peptide at 5 μg/ml, no protease inhibitor; for binding of Aβ1-42 on addition of antiproteases: 1 mM PMSF (CAP37, NE) or 125 μM chymostatin (CG)
Procedure: CAP37, NE, and CG were purified from human neutrophils and purchased from Athens Research and Technology. BSA was from Sigma Aldrich. CAP37-derived peptides were synthesized by CS Bio Co with a purity >95%. Maxisorp plates from Nunc were coated with 100 μl neutrophil protein, peptide, or BSA diluted at 5 μg/ml in PBS with or without 1 mM PMSF purchased from Sigma Aldrich (for experiments with CAP37, NE, and BSA) or ±125 μM chymostatin purchased from Santa Cruz (for experiments with CG and BSA). Plate coating was done at room temperature for 2 hours with shaking and then at 4° C. overnight. Plates were washed three times in PBST (PBS+0.05% tween), then blocked with 3% BSA in PBST for 1 hour at room temperature with shaking. Plates were washed 3× in PBST, and 150 nM Aβ1-42 (purchased from Bachem and reconstituted in 1 mM NaOH) was added in 0.1% BSA in PBST and incubated 70 minutes at 37° C. Plates were then washed 4 times with PBST and monoclonal mouse anti-amyloid precursor protein/amyloid beta antibody, purchased from Cell Signaling Technology was added at a 1:500 dilution in 1% BSA in PBST and incubated for 1 hour at room temperature with shaking. Plates were washed 4× in PBST and donkey anti mouse HRP-conjugated secondary antibody from Jackson ImmunoResearch Laboratories was added at 1:10,000 in PBST and incubated 1 hour at room temperature with shaking, then washed 4 times in PBST. […] Sulfuric acid (5N) was added to each well to stop the reaction, and the absorbance at 492 nm was read on a Biotek Synergy II plate reader.

[3] = tested on: mouse neuroblastoma cell line Neuro-2a; test: Neurotoxicity assay of Aβ1-42 fibrils/oligomers (trypan blue cell death); type: cell-based; conditions: for effect on Aβ1-42 oligomer toxicity: oligomers formed 15 min in presence of increasing concentrations; for effect on Aβ1-42 oligomer toxicity / effect on toxicity of Aβ1-42 fibrils: 18 μM Aβ1-42 on cells, 24 hours; for effect on toxicity of Aβ1-42 fibrils: protein at IC50 of fibrillation pre-incubated with Aβ1-42 24 hours in fibrillation conditions; for concentration at which significant inhibition of oligomer toxicity starts: tested at 0.5, 1, 2 and 4-fold the fibrillation IC50
Procedure: A mouse neuroblastoma cell line Neuro-2a from ATCC was used for these experiments. Cells were grown and seeded in 96 well plates at 20,000 cells per well in complete medium (MEM α, nucleosides, no phenol red from Gibco, with 10% heat inactivated fetal bovine serum from Gibco, and penicillin/streptomycin from Lonza). At 24 hours after seeding, cells were washed with warmed MEM α, and then incubated in 90 μl MEM α+N2 Supplements+20 μl test sample (Aβ1-42 prepared as described below). Cells were incubated another 24 hours at 37° C., and then dislodged by pipetting up and down vigorously. 10 μl of cells were added to 10 μl trypan blue dye (0.4% solution) from BioRad, mixed and counted in a BioRad TC20 cell counter. The percent of living and dead cells was recorded for each well. In the case of the water and Triton X100 controls, 20 μl MEM α+N2 Supplements was added instead of the test sample and, just before counting the cells, 20 μl of medium was removed and replaced with 20 μl water or Triton X100 at a final concentration of 0.1%.
Monomeric Aβ1-42 (hexafluoroisopropanol treated Aβ1-42) from Bachem was reconstituted at 5 mM in anhydrous DMSO. Untreated Aβ1-42 from CS Bio was also used in these experiments. It was first treated with 1 mM in hexafluoroisopropanol from Sigma Aldrich, incubated 30 min at room temperature, and left open to dry in the fume hood overnight. It was then vacuum desiccated for 1 hour at room temperature. Dry films of Aβ1-42 were stored at −20° C. until use to keep it under a monomeric form. Aβ1-42 from CS Bio was also reconstituted in anhydrous DMSO at 5 mM before use.
To prepare the fibril and oligomer test samples, monomeric Aβ1-42 was placed under conditions favoring either formation of fibrils or oligomers. To form fibrils, 100 μM Aβ1-42 was added to Anaspec fibrillation buffer A±neutrophil protein, and incubated at 37° C. 24 hours before addition to the cells at a final concentration of 18 μM. Neutrophil proteins were used at Aβ/Protein ratios that led to 50% inhibition of fibrillation (IC50), previously determined for each protein in the fibrillation assay. To form oligomers, MEM α+N2 Supplements was used instead of the fibrillation buffer A±increasing concentrations of neutrophil protein or CAP37-derived peptide. Each mixture was then added to a tube containing freshly prepared Aβ1-42 in DMSO at a final concentration of 100 μM, and incubated 15 min at room temperature. These test samples were then tested on the cells at a final concentration of 18 μM.
Oligomers were formed by incubating 100 μM Aβ1-42 in MEMα+N2 Supplements at 4° C. for 3 days. […] Finally, these oligomers were added to neurons at a final concentration of 18 μM, and percent cell death was measured at 24 h.

T1 sequence (P05067 672-713 limits assumed): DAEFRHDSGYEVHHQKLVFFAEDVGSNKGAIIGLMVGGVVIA

## CG119-144 ΔR129V130: mutant CG-derived peptide, CG119-144 with positively charged R129 (and V130) deleted (GTLCTVAGWGSMRRGTDTLREVQL)
Aβ1-42 [1]
  inhibition of Aβ1-42 fibrillation (in words): no inhibitory effect
Aβ1-42 [2]
  binding of Aβ1-42: abolished the binding

## NQGRHFCGGALIHARFVMTAASCFQ (Completely synthesized in the lab. Amino acids 20-44 of CAP37 protein.) [20-44 CC, wild-type CAP37-derived peptide, amino acids 20-44 of CAP37 protein]
Aβ1-42 [2]
  binding of Aβ1-42: binds

## GTRCQVAGWGSQRSGGRLSRFPRFVNV (Completely synthesized in the lab. Amino acids 120-146 of CAP37 protein.) [120-146 QR, wild-type CAP37-derived peptide, amino acids 120-146 of CAP37 protein]
Aβ1-42 [2]
  binding of Aβ1-42: binds

## CSCC[C@H](NC(=O)[C@H](CO)NC(=O)[C@@H](NC(=O)[C@H](CCCNC(=N)N)NC(=O)CNC(=O)[C@H](Cc1c[nH]c2ccccc12)NC(=O)CNC(=O)[C@H](C)NC(=O)[C@@H](NC(=O)[C@@H](NC(=O)[C@H](CS)NC(=O)[C@H](CC(C)C)NC(=O)[C@@H](NC(=O)CN)[C@@H](C)O)[C@@H](C)O)C(C)C)C(C)C)C(=O)N[C@@H](CCCNC(=N)N)C(=O)N[C@@H](CCCNC(=N)N)C(=O)NCC(=O)N[C@H](C(=O)N[C@@H](CCCNC(=N)N)C(=O)N[C@H](C(=O)N[C@@H](CC(C)C)C(=O)N[C@@H](CCCNC(=N)N)C(=O)N[C@@H](CCC(=O)O)C(=O)N[C@H](C(=O)N[C@@H](CCC(N)=O)C(=O)N[C@@H](CC(C)C)C(=O)O)C(C)C)[C@@H](C)O)[C@@H](C)O [CG119-144 D137R] (H-GTLCTVAGWGRVSMRRGTRTLREVQL-OH; N-terminus and C-terminus assumed)
Aβ1-42 [1]
  inhibition of Aβ1-42 fibrillation (in words): inhibitory effects
  molar ratio inhibitor/Aβ1-42 corresponding to IC50 of fibrillation: 1/3
Aβ1-42 [2]
  binding of Aβ1-42: increased the binding
[3]
  effect on Aβ1-42 oligomer toxicity: significantly decrease
[3]; oligomers formed first (3 days, 4° C.), then incubated with peptide at 2×IC50 for 3 days, 18 μM on neurons, cell death at 24 h
  effect on neurotoxicity of preformed Aβ1-42 oligomers: significantly reversed

## GTLCTVAGWGRVSMRRGTDTLRPRVQL (Completely synthesized in the lab. Peptide CG119-144.) [CG119-144 E141PR]
Aβ1-42 [1]
  inhibition of Aβ1-42 fibrillation (in words): inhibitory effects
Aβ1-42 [2]
  binding of Aβ1-42: increased the binding

## NE: neutrophil elastase, full-length, purified from human neutrophils
Aβ1-42 [2]
  binding of Aβ1-42: almost undetectable
  binding of Aβ1-42 on addition of antiproteases: significantly increased
[3]
  effect on Aβ1-42 oligomer toxicity: significantly inhibited
  effect on toxicity of Aβ1-42 fibrils: significant inhibition
  concentration at which significant inhibition of oligomer toxicity starts: 2 ×IC50

## CG: cathepsin G, full-length, purified from human neutrophils
Aβ1-42 [2]
  binding of Aβ1-42: stronger
  binding of Aβ1-42 on addition of antiproteases: not significantly changed
[3]
  effect on Aβ1-42 oligomer toxicity: significantly inhibited
  effect on toxicity of Aβ1-42 fibrils: significant inhibition
  concentration at which significant inhibition of oligomer toxicity starts: 0.5 ×IC50

## 95-122 5RMP: 95-122 with two AEEA mini-PEG molecules and 4 arginines at the N-terminal end and one arginine at the C-terminal end (RRRRLDREANLTSSVTILPLPLQNATVEAGTRR; also: two AEEA mini-PEG molecules, place not given here)
Aβ1-42 [1]
  inhibition of Aβ1-42 fibrillation (in words): did not inhibit fibrillation
Aβ1-42 [2]
  binding of Aβ1-42: does not interact

## NQGRHFSGGALIHARFVMTAASCFQ (Completely synthesized in the lab. Peptide CAP3720-44C26S.) [20-44 SC, mutant CAP37-derived peptide 20-44]
Aβ1-42 [2]
  binding of Aβ1-42: binds

## GTLCTVAGWGRVSMRRGTDTLREVQL (Completely synthesized in the lab. Amino acids 119-144 of Cathepsin G protein.) [CG119-144]
Aβ1-42 [1]
  inhibition of Aβ1-42 fibrillation (in words): no inhibitory effect
Aβ1-42 [2]
  binding of Aβ1-42: Highest levels

## 95-122: wild-type CAP37-derived peptide 95-122 (LDREANLTSSVTILPLPLQNATVEAGTR)
Aβ1-42 [2]
  binding of Aβ1-42: did not bind

B1: CAP37: cationic antimicrobial protein of molecular weight 37 KDa, full-length, purified from human neutrophils (protein)
chain: IVGGRKARPRQFPFLASIQNQGRHFCGGALIHARFVMTAASCFQSQNPGVSTVVLGAYDLRRRERQSRQTFSISSMSENGYDPQQNLNDLMLLQLDREANLTSSVTILPLPLQNATVEAGTRCQVAGWGSQRSGGRLSRFPRFVNVTVTPEDQCRPNNVCTGVLTRRGGICNGDGGTPLVCEGLAHGVASFSLGPCGRGPDFFTRVALFRDWIDGVLNNPGP
Aβ1-42 [1]
  molar ratio inhibitor/Aβ1-42 corresponding to IC50 of fibrillation: 1/11
Aβ1-42 [2]
  binding of Aβ1-42: stronger
  binding of Aβ1-42 on addition of antiproteases: not significantly changed
[3]
  effect on Aβ1-42 oligomer toxicity: does not inhibit
  effect on toxicity of Aβ1-42 fibrils: no effect
